Experimental findings from article PMC9196870, “Crystal Structure of an Intramolecular Mesaconyl-Coenzyme A Transferase From the 3-Hydroxypropionic Acid Cycle of Roseiflexus castenholzii” (Frontiers in Microbiology, 2022) are described below.

This data set concerns the molecule itself. Put plainly: SEC; gel filtration, Superdex 200 10/300 GL, 25 mM Tris-Cl pH 8.0, 150 mM NaCl, 0.5 mL/min.

B1: Mesaconyl-CoA C1-C4 CoA transferase (MCT) from Roseiflexus castenholzii (enzyme)
chain: MNGILSGMRIVEGSAFVAAPLGGMTLAQLGADVIRFDPIGGGLDYKRWPVTLDGKHSLFWAGLNKGKRSIAIDIRHPRGQELLTQLICAPGDEAGLFITNFPARGWLSYEALKAHRADLIMVNLLGRRDGGSEVDYTVNPQLGLPFMTGPFTSPEVVNHVLPAWDIVTGQMIALGLLAAERHRRRTGEGQLVKLALKDVGLAMIGHLGMIAEVMINDADRPKQGNYLYGAFGRDFETLDGKRVMVVGLTDLQWKALGKATGLTDAFNALGARLGLDMNDEGNRFRARREIAALLEPWFHARTFAEVRRVFEEHRVTWGPYRTVREAIAQDPDCSTENPMFTMVEQPGIGTYLMPASPLDFSRMPRLPAQRAPRLGEHTDEILLEVLGLSDGEVGKLHDEGIVAGPEEE
B1: the “stoichiometry N” value came out at 2.
